This sample holds only a part of the variants without activity.
B1: TPR 5TU (parent)
chain: GGAUCUUCUCGAUCUAACAAAAAAGACAAAUCUGCCACAAAGCUUGAGAGCAUCUUCGGAUGCAGAGGCGGCAGCCUUCGGUGGCGCGAUAGCGCCAACGUUCUCAACUAUGACACGCAAAACGCGUGCUCCGUUGAAUGGAGUUUAUCAUG

Variants of: B1
Test: polymerase ribozyme fitness, log enrichment relative to wild type (log ratio); higher = more active; in vitro selection for triplet polymerase activity
Procedure, shortened: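 The heterodimeric triplet polymerase ribozyme's subunits were each mutagenized into PCR-built libraries and transcribed. Every library was selected once, in triplicate, by annealing with a biotinylated primer, the partner subunit and triplets, incubating frozen at −7 °C, gel-excising extended constructs, capturing on streptavidin beads and running RT-PCR. Input and output libraries were Illumina-sequenced, with genotypes kept only at ≥10 input reads and ≥1 read per output. Fitness, from inverse-variance-weighted replicate averages, is the base-2 logarithm of genotype enrichment over wild-type enrichment.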

| Variant | polymerase ribozyme fitness (log ratio) |
| --- | --- |
| U7A A22C A24U C54G G83A | ≤ -4.2 |
| U7G A20U U53A G88U C96A A113U C114U A122U U139A A142U | ≤ -4.2 |
| U6G C87U C131U | 0.928 |
| U7G U53A U56G G84U U148C | ≤ -4.2 |
| U7C A20C A49C U77C A91U | ≤ -4.2 |
| C8A A19G G62A G67C C93A A97U G112U A142G U148A | ≤ -4.2 |
| U7A A119G A120C | -3.25 |
| U6G C85A C87G A98U A106C U148A | ≤ -4.2 |
| U6G U13G U44A A60G C69G C93A C118A | ≤ -4.2 |
| U7G C75A G84A G94U A106U A120C | ≤ -4.2 |
| U7A C10A C14U C32G C36A U53G U55G U61A G67C U82G C87G C96U C103G | ≤ -4.2 |
| U7A A29C C85U C87U G143C A150G | ≤ -4.2 |
| U7G A21C C35A A47C C99A C123A | ≤ -4.2 |
| U7G G25C A60G C93U C123U | ≤ -4.2 |
| U7C G86U | -3.7 |
| U6G A21U A26G A40C A66G A107U U135A G141A | ≤ -4.2 |
| U7C U9G A17U A26G G84A C116A | -3.98 |
| U6G A39C C85A A98G G126C | -3.91 |
| U7A C8G U13G U90G C95G U134A | ≤ -4.2 |
| U6G G86U G152U | -4.12 |
| U6G G48U G58A C76G U82C C93U A122C A138G A142G | ≤ -4.2 |
| U7C A12C A24C C96U A120C | ≤ -4.2 |
| U6G G92A | -2.59 |
| U6G A49C C51U G88A A107U A142G | ≤ -4.2 |

| Variant | polymerase ribozyme fitness (log ratio) |
| --- | --- |
| U7C A23U C87A A89G C116U C125U | ≤ -4.2 |
| U7C C38U C95A A119U | -2.61 |
| C8A A30U A40U G48C G84A A113U C132A | ≤ -4.2 |
| U7G C54U G92U | -2.21 |
| U7G A40U C43G A91U | ≤ -4.2 |
| U6G C96U | -0.759 |
| U6G C87G | -3.6 |
| U6G C87U | -0.579 |
| C8A A12G | -3.98 |
| C8A A26U A49U G83U U101G C118U A138C | ≤ -4.2 |
| U6G U7C U55A U135A | -4.01 |
| U6G C114A | -3.22 |
| U7A A19C G92C C105A A115U C116U A137U | ≤ -4.2 |
| U6G C8A G48A U56G C75U G80C G83U G92U C93A C99U G100U | ≤ -4.2 |
| U6G G25U G50C G92A | ≤ -4.2 |
| U7G A64G C87A C105A U144G | ≤ -4.2 |
| U6G C69U G84A A106C | -2.47 |
| U6G A52C | -0.94 |
| U6G A73C C99U | ≤ -4.2 |
| U7A C79G G94C C114A C118G | ≤ -4.2 |
| U6G U31G U61A C95A G136A | -1.38 |
| U6G C10G C87G | ≤ -4.2 |
| U7C A23G U82G G83A U146G A150G G152C | ≤ -4.2 |
| U7A U9A A21U U55A G59A C99G C129U A147C | ≤ -4.2 |

| Variant | polymerase ribozyme fitness (log ratio) |
| --- | --- |
| U7C A17G A119U | -3.03 |
| U7A A28U G46C G50A C95G C103G C129A U144C | ≤ -4.2 |
| U7A C93G A113U A138C | ≤ -4.2 |
| U7A C85U | -2.9 |
| U7G G42A U44A G68C A91U G117A U135A | ≤ -4.2 |
| U7A A49C C103A U139A | ≤ -4.2 |
| U6G A60C C85A C96U G124U | -4.11 |
| U7A A22G C72A A122U C131A | ≤ -4.2 |
| U7A C76U G94A C105U U151A | -3.84 |
| U6G A40U A66G U82A C96A G100U | ≤ -4.2 |
| U7A U55A | -3.25 |
| U6C U61A G68C G84A G88U A121G G124A | ≤ -4.2 |
| U7G A23C A24U C54G | ≤ -4.2 |
| C8A A26G A37C G62A A120G G140C G152A | -4.13 |
| C8A A26G G59U A89G C93G C95U C108U C132A | ≤ -4.2 |
| C8A A16G G50U G83C U135C G136C | ≤ -4.2 |
| U7G C63A C96G | ≤ -4.2 |
| U6G A29G | -3.97 |
| U6G C54G A73U U102A A106G U127G C132G U135G | ≤ -4.2 |
| U6G A47C C87A | ≤ -4.2 |
| U6G A12U A28C A40C G94C | ≤ -4.2 |
| U6G G81C A91G | -2.46 |
| U7G G11C A29C U82G C95U U109G | ≤ -4.2 |
| C8A A41G | -4.12 |

| Variant | polymerase ribozyme fitness (log ratio) |
| --- | --- |
| U7G A12G A52U C57A A73G C93G | ≤ -4.2 |
| C8A A52C C75U C95G C96U U109A | ≤ -4.2 |
| U7A C14G C32U A106G U148C | ≤ -4.2 |
| U6G A16U G58A G141U | -1.34 |
| U7C C8A C32U A91U A121G U134C | ≤ -4.2 |
| U7G A21G C57G U127G U130G C131U U135G U148A | ≤ -4.2 |
| U7G A19U A52U U56A A91G C108A | ≤ -4.2 |
| U6C U82A C99U G136U | -3.43 |
| U6G C57A C85A C95U | -0.326 |
| U7G A23G U53A C99G C116A C125G A137C | ≤ -4.2 |
| U6G G59A G92A C95A C105U | -4.19 |
| U7C C85U U145A | -2.42 |
| U6G C85A C125G | -0.955 |
| U6G A29C A73U G86U | ≤ -4.2 |
| U6G A121U | -0.506 |
| U7G U15A G59C G124C G136A | -3.25 |
| C8A A41C A66U C69A U77C G83C G126U U130G G141C G152C | ≤ -4.2 |
| U7G C8G U45G A66U C85U A138U | ≤ -4.2 |
| C8A A17G U78G G94A G133A U134A | ≤ -4.2 |
| U6G A37C C51G G74C A98U C103A C118A G128U U135C U146C G152A | ≤ -4.2 |
| U6G G128U | -3.77 |
| U6G A22G U139A | ≤ -4.2 |
| U7C A20C A89G C96A U111C C118U | ≤ -4.2 |
| C8A A47G A49C G59C A60U G84A C125G | ≤ -4.2 |

| Variant | polymerase ribozyme fitness (log ratio) |
| --- | --- |
| U6G G86C U135G | ≤ -4.2 |
| U7A C18U A91U A97U U102C U144G | ≤ -4.2 |
| U7C C76U G84A A119U U145G | -3.32 |
| U7A A26U C27U A41U U55G C93U | ≤ -4.2 |
| U7A A26G C75G C93A | -4.13 |
| U6G G50U C95U | 0.0133 |
| U7G G50C C87G C125U G133A G140A A142U | ≤ -4.2 |
| C8A A16G A29U A47U G71U C93A A106G G133U C149U | ≤ -4.2 |
| U7G A41U C43U U82G G92U U146A | ≤ -4.2 |
| U6G C10U A12U U33G A37U C95A U135A G141U U144C | ≤ -4.2 |
| U7C U55A C63U G88U A107U U145A | ≤ -4.2 |
| U7G G42C U61A C96U G112C G124C G126C G136A | ≤ -4.2 |
| U7C G92C | -2.73 |
| U7A C14A A23C C75G C85U | ≤ -4.2 |
| U6G C63U A89C | -0.961 |
| U7G C18U A19U A28U C85A C87U A97U | ≤ -4.2 |
| U7G A47U U55A C57A C63U C95U | -3.6 |
| U6G G11A G48U G50U A66G U90A G100U U102A A122C | ≤ -4.2 |
| U6G A41U U45C | -2.17 |
| U7G C35A A40G U77C A150U | ≤ -4.2 |
| U7G A60U G83C C85A C105G A137G | ≤ -4.2 |
| C8A A17G A73U U78G C87U | ≤ -4.2 |
| U7A U53A U56A | ≤ -4.2 |
| U7A U9A A98G A121G | ≤ -4.2 |

| Variant | polymerase ribozyme fitness (log ratio) |
| --- | --- |
| U7G A40G A52C G65U A73G U82A C93G U134A U148G | ≤ -4.2 |
| U6G C35U G58C C96U A113C U135C A147U | ≤ -4.2 |
| U6G A28U | -3.76 |
| U7A C54A C72A | ≤ -4.2 |
| U7A A17U A19C C38U G58U G86A G92C | ≤ -4.2 |
| U7A G25A G50U G84U | ≤ -4.2 |
| U7G G11A C18A A37G G50A C85U G112U | ≤ -4.2 |
| U7A A23C G50U G59A A73C G86U C95G C108U | ≤ -4.2 |
| U6G C99G G141C | -2.05 |
| U6G A12U A28C G65U U127G | ≤ -4.2 |
| U7A A20C C93G C116G U135G | ≤ -4.2 |
| C8A A17U A23U A26G C27G U90G G92A A115C | ≤ -4.2 |
| U6G C63U G83U A98U A122U | -0.875 |
| U7C C18G C43G G48A G58C C63U C76G | ≤ -4.2 |
| U6G C75G U90A G92U | ≤ -4.2 |
| U6C U61A C85U A97C A120G | -3.12 |
| U7G C85U | -2.79 |
| U7G C85A | -3.43 |
| U7G U82A G117U | -3.65 |
| U6G A73U | -0.322 |
| U6G G83A | -0.0531 |
| U6G U55G G92A | -3.71 |
| U7A C75U G94C A122G U145A | -3.63 |
| U6G G68A | -3.62 |

| Variant | polymerase ribozyme fitness (log ratio) |
| --- | --- |
| U7A A20G C35U A47G G83A C96A | ≤ -4.2 |
| U6G A28C C76G G92U | ≤ -4.2 |
| U6G C10G C14A A49C C85A C93U C116U | ≤ -4.2 |
| U7A U33G C79A C116U U144C | ≤ -4.2 |
| U6G U78A G84U A91C C108A A121C | ≤ -4.2 |
| U6G G59C | 0.358 |
| U7A C8U A73G G81A G83A C96A A119U G124C | ≤ -4.2 |
| U7C C35U | -2.29 |
| U6G C10G A21G G71A C76U C85A | ≤ -4.2 |
| U7G A19C A30U G71C G84A C96G C118G | ≤ -4.2 |
| U7C A20U C96A C103U U109C G152U | -3.42 |
| U7G G11U A16G A24C U31G G34U A98G G117C | ≤ -4.2 |
| U6G A29U A73G U77C C95U A107U | ≤ -4.2 |
| C8A A22U C79G G81U C95U A107U C108U | ≤ -4.2 |
| U6G A19U G50C G88U C99G | ≤ -4.2 |
| U6G G50C | -3.07 |
| U6G U55A | 0.402 |
| U6G C27A U33C C85A G88A U134C | ≤ -4.2 |
| U7C C57G A98G | -3.3 |
| U7G A47C A49U G86U C99U | ≤ -4.2 |
| U7G G50U | -3.02 |
| U6G U53C G92C U144C | -1.5 |
| U6G C85U | -0.35 |

— the RNAGym collection of RNA variant scans (doi:10.1073/pnas.2313332121)
